In US20260139001A1 one finds normalized tube fluorescence data, which are given here for one substance.

The target of this assay is SARS-CoV-2 Spike RBD, B.1.1.529/Omicron (SARS-CoV-2 Omicron B.1.1.529) (UniProt P0DTC2).

In the case of “Ribosomally constructed Wuhan-NS (VHH72 V104UAG construct translated with NBDxK-tRNACUA)”, the normalized tube fluorescence was 0.09.
